Measurements published in patent publication US20250354169A1.

Biological target: human FAM19A5-Fc protein (human) (UniProt Q7Z5A7)
Assay: binding inhibition, flow cytometry: 0.1 ug FAM19A5-Fc pre-incubated with 200 uL scFv supernatant, added to U87MG cells, detected with anti-human IgG 488; control GFP AAV supernatant

Sequence of UniProt Q7Z5A7 (Q7Z5A7 44-132): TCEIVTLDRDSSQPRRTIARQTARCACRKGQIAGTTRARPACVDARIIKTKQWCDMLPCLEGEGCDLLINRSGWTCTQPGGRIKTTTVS

reduction of the MFI of the binding of human FAM19A5-Fc to U87MG cells	Binder
19%	anti-FAM19A5 ("1-65") scFv, secreted by cells transduced with scAAV9-CMV-1-65-ScFv (scFv, part only, C-terminal FLAG tag) scFv: ALTQPSSVSANPGETVKITCSGGGSSGYGYGWYQQKSPSSAPLTVIYWNDKRPSDIPSRFSGSKSGSTHTLTITGVQAEDEAVYFCGNDDYSSDSGYVGVFGAGTTLTVLSGGGGSSGGGGSAVTLDESGGGLQTPGGALSLVCKASGFTFSSYQMGWVRQAPGKGLEWVGVINKSGSDTSYGSAVKGRATISRDNGQSTVRLQLNNLRAEDTGTYFCAKGSASYITAATIDAWGHGTEVIVSS
68%	anti-FAM19A5 ("2-13") scFv, secreted by cells transduced with scAAV9-CMV-2-13-ScFv (scFv, part only, C-terminal FLAG tag) scFv: ALTQPSSVSANPGETVKITCSGGSYSYGWFQQKSPGSALVTVIYWDDERPSDIPSRFSGALSGSTNTLTITGVQADDEAVYFCGTEDISGTAGVFGAGTTLTVLSGGGGSSGGGGSAVTLDESGGGLQTPGGALSLVCKASGFTFSSHGMFWVRQTPGKGLEYVAEITNDGSGTNYGSAVKGRATISRDNGQSTVRLQLNNLRAEDTGTYFCARSTYECPGGFSCWGDTGQIDAWGHGTEVIVSS
